One assay concerns the target TbTim10-Myc (T. brucei). Briefly: co-IP; anti-Myc agarose beads, 1% digitonin-solubilised mitochondrial extract of double-tagged T. brucei cells (day 2 of induction), 50 mM Tris pH 7.2, 50 mM NaCl, 10% glycerol, 12 h at 4 °C; immunoblot, bound fraction as percent of input. Background: A western blot detects proteins with antibodies after separation by electrophoresis.
The target in a further assay is TbTim10-HA (T. brucei). Briefly: co-IP; anti-HA agarose beads, 1% digitonin-solubilised mitochondrial extract of double-tagged T. brucei cells (day 2 of induction), 50 mM Tris pH 7.2, 50 mM NaCl, 10% glycerol, 12 h at 4 °C; immunoblot, bound fraction as percent of input.
Another assay concerns the target TbTim12-HA (T. brucei). The assay is described as above.
The target in another assay is TbTim13-HA (T. brucei). The description is as above.
The target in a further assay is TbTim8/13-HA (T. brucei). Described as above.
Another assay addresses TbTim9-HA (T. brucei). Described as above.

Drawing on publication PMC10855554, this text covers percent of input co-precipitated (% of the input) and percent of input co-precipitated for five substances.

TbTim8/13-HA (natural protein) came in with a percent of input co-precipitated (% of the input) with TbTim10-Myc (T. brucei) of 45.

TbTim9-HA (natural protein): the percent of input co-precipitated (% of the input) with TbTim10-Myc (T. brucei) was found to be 35.

In the case of TbTim10-HA (natural protein), in the assay with TbTim10-Myc (T. brucei), the percent of input co-precipitated (% of the input) was 25.

Consider TbTim10-Myc (natural protein), for which the percent of input co-precipitated with TbTim10-HA (T. brucei), with TbTim12-HA (T. brucei) and in the assay with TbTim13-HA (T. brucei) was less than 10% in each case. For the same substance, the percent of input co-precipitated (% of the input) with TbTim8/13-HA (T. brucei) and in the assay with TbTim9-HA (T. brucei) was 45 throughout.

Turning to TbTim12-HA (natural protein), the percent of input co-precipitated (% of the input) with TbTim10-Myc (T. brucei) amounted to 30.
